Values of other authors in paper PMC3946517.

How the values were obtained:
[1] = target: quinol MADH (Paracoccus denitrificans) (UniProt P22619); assay: stopped-flow kinetics
[2] = target: preMADH (Paracoccus denitrificans) (UniProt P22619); assay: stopped-flow kinetics

**Q.** With MauG (from UniProt Q51658) as the substance, how does the Kd [1] read?
**A.** Its Kd is 11.2 µM.

**Q.** What about the Kd [2] of the same substance?
**A.** The Kd was under 1.5 µM.
